Consider 47 sequences from the NTF2 design screens of Basanta et al. (2020).

The nature of this data set: protease stability score; higher = more stable; yeast display proteolysis, trypsin and chymotrypsin.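 Further: relative to predicted unfolded state with 0 unfolded-like and 1 meaning tenfold more protease.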
The sequence “REDEEMAEKISEFIFHVLETGDEKSNHENIDPNARTHIGDKHSHGRENVTRMMDWWMHFLGVKHIEKKDLEIQGNFAFLHSISVVGDKTFEIDVTALKVNGQWVFKKFQVN” showed a protease stability score of 1.64.
For the sequence “REDEEMIEHAVRREIHSYYTGDWEKHYKLLDPNALIHIDINGRQENIHGREEIMRFWYERFKDFGFDHMEIKRITLVDGKLHIFSIIDVNGVRIELEIIIVKVDGRWRLHTMRYHYH”, the protease stability score came out at 0.652.
As to “REDEEQMSRFIKEMIHLLRTGDEDRLHELIDPHTRLDFDGKEIHGREEWSQFLKEIRFRRFEVKDFEIVNGVANVDGKMHGEFDGQRFTTRVHIYNVKINGRWVHKWEEIG”, the protease stability score worked out at 1.32.
Turning to “REDEEWLERLLRIIEKAMRTGDEQLTKELFDPNVRLEVGDKIIIGWEELTKIMHEMRVRDSRIHRVRTVGDKVEADTTVNGEIDGREFETEVRIEMLKVDGQWVVDKVHFK”, the protease stability score amounted to 1.89.
For the sequence “REDEKFRDYATHWLEKYVRTGDENLMEELIDPDVRVHVNGQENHGMDEMRKWMLELRIEHIIIRRIEIHVYDGVIEINIDSETRVNFNGRKIRTKVHIHTETRKIDGRWSISHLELRFK”, the protease stability score came out at 1.07.
Regarding “REDEKLFEEVLRELVKWLTTGDEKQMRDLFDPNARREVNGVEVHGWEEFLRHVREDRKRYDHVKDIEIHHIDIQGDKLEINVTLVGHIDGKEDVIIFTILLRKVNGKWIVKEIQFH”, the protease stability score amounted to 1.52.
Regarding “REDEQDLRKFVEDLIHSLKTGDEDSTSRLLDPHVRVEIGDKEFVGREDFTRLMVETVRRYDHIRFDLRRVEDIDGKAHIHGHIYIRVNGVWHHKEVEIIIDKINGKWVIRELRVK”, the protease stability score is 2.33.
As to “REDEQLFHEMLRRVIHALLTGDEQILADLLDPRMRIMYDGVSRHGWHDFIEVLRDLGFDHLILKDYRIQGDYVRFHFIIEQGDKHHTVEIHVQIWDGKVEQIVVNYR”, the protease stability score worked out at 2.04.
Regarding “REDEREAEEFLRKLLHDIRTGDEESISRMIDPHVRVIYNGVEVIGRERALEVFKKFLEEIRIDTYHVHKVDMINGKMHADTRLRWEINGQRDTSTMLIVVEKVNGRWFLHSVVIS”, the protease stability score turned out to be 1.97.
The sequence “REDERISQIAIEIVEHLIRTGDERVESELADPHMKLRINGVEIHGRERVHDWIHRFVTEFGIDRVEARVHDSHVVNGRIYNDTESHINGKNVKMRWIAIKYNGRWIQTMITFE” yielded a protease stability score of 1.3.
As for “REDKKDAEDIIRWLLRAWHTGDPRDVEKMMDPNTLSDINGQKIHGREDVSRFNEFILRHARVEVDVHSMEVYGNYLHVDERFTLRIGDKEIRTETHIIIIKVNGRWLVQTISYG”, the protease stability score amounted to 0.782.
The value for “REDVEDFKRFIELEVHAHETGDEDLLRKLLDPHVRVIIDGVTIVGWKALRDLLERFDHYTIHHMHIEDLRIQGDKIIVDLRLDLIFNYNGRHLRVDSHARIIMIKYNGRWYNHSIEFE” was 2.12; that for “REEDEIAENLFRLWIKSFLTGDFNTLRKLMDPHVRIHINGQEIHGREDFVRLLWEEFRRLGAKFHIEIKHLDVQGDKVFSEGTLRIEQGNKKDSKSVLIELIVVDGVITEIRMDVR” was 2.25.
Then “REEDEQLKRFTDEFIQVQRTGNEDLLREYADPNVKIVVGDKELHGREEMLYVFREIRVHNSELKRMHIIDGRAEVHVTAHVRQGDKVIEVKLHIIIYKIDGRWVIESMQWE”, with 1.01.
“REEDERDHRISELLFDLWVTGDWEIFHHLADPNVKANINGQETHGREKIMRIMMRMIHEFGFKHIQLEDSTVINGRVHQQIKVRVGDKSEEFNIHHHVVDGKIKHIHIEVR” showed a protease stability score of 1.36.
In turn, “REEDHRSRHLSELWIHLWETGDEETMKKLADPNMRINVNGQEFHGREQATRHIHEFLEKFKNVRLHVENIRIQGEKILIISRAEVDGQELEIHIELIIVDGRIEEVNLHVYRR” registered a protease stability score of 1.46.
The value for “REEDKEFEDAVKTILHSFLTGDFDLLIKLLDPNVRIRFENVDLVGWSEYLRRLEEFGVKVHRTKRSDIRYINGVAVVIIDGEMEYGDKKTKVELNFVMQKYDGRWRTQSIHEKEH” was 1.12.
Then “REEDKRAREDVEEWLRWFLTGDEEHLIKYADPNVRVDYGDKDIHGRNEATRIWREFLKHIRIHHVEVSHIKYVGEKVIVDVRLDGEINGRRVITHVEMEIIVVNGVLKSVHINSR”, with 1.21.
For “REEEDNAEKFWEEFSKSLLTGDEDHMEELADPNARMRINGREKVGREEVRKELSHLFTHIRLKSIHLKDFKFFDGRLDIDGSLDGHINGKRREIEVHVHLWKVNGRWTLETLKIN”, the protease stability score turned out to be 1.17.
With “REEEEEAKRFLDIITRSILTGDEDSLSELFDPNTQLHYGDKRFVGRERINEVVKQWRIEDVNLHDVEVQGEWAILDTRVDGNFNGKKRNLETRIITEKVNGRWILKRVEIE”, the protease stability score stood at 1.35.
As for “REEEEEIEEALRQWLTLHETGDFKYLEKLFDPNVKQDVGDKELHGRELFSKFEHELAERIKGVRFRYHYEEIHIFDGRVVLRLDGIWEIGDKSMRVTLIVIMNKFDGRWKLESLHIEYR”, the protease stability score turned out to be 1.24.
Sequence “REEEEEIRFAEEFWMELEKTGDEHKILRMADPNVRVRIGDKHHHGREHLRRVIEWRLEYAGIDKIEVRLRRVTIINGRVHIDGELIVGDKEHRVEIILVKINGRWILHEFEIR” had a protease stability score of 1.5.
The value for “REEEEEMEELVRRIIHLLKTGDEREFNRLLDPDARVDDGDWHDHGREAWNKWSEKLRRDAGHENIEFHVRHFEVINGRIIMETKVHIGDKTLDTRLIFVVINGRLTSVRLEIH” was 0.037; that for “REEEEESQKATEHQLHSLRTGDWRSIERLLDPNTRMEINGVDSVGREYVLELFRRWLEEAGINHIELKSYEVFNGKLEIHSEVHYDGRTIKVINIVIKVNGRWLLHHVHIEDL” was 0.561; that for “REEEEEVKRNAHITVHILLTGDFHHHSRLFDPHVRSEWNGVELHGMEEDLKWWIELVKHLRFKHFEIHDIRVYDGVADNDINEVIKVNGKDFTFKSSIILIIINGQIRELKFVIN” was 0.073.
With “REEEEHAEKVVKLMLHWLHTGDEEKFINNADPNVKLQIDGQRIHGWDDWERRMNEKLQRVDYIDNVVIRHIDNQGDKAIFHGELRGIQGDKHFTFHVELRIRVVNGVIHEMEIIIR”, the protease stability score came out at 2.05.
As for “REEEEHAEYVIRVWERLLETGDEHEVARLLDPEVRLNIDGVDIHGREDIIRWLKHIRIEIEDSDHKRIEVQGEKIHLDGHRKEVIHVGDKKIRREHRIKLELVWIDGKITSLNVVLH”, the protease stability score is 1.24.
Turning to “REEEEHAHRIFEILVRLWLTGDEDTYLNLADPHDLIEIDQGDKRDENHGRESAFHLWEWFLREMRIKRMILRDERVQGEKLEFDVEVRGNINGVDLRFRVHIIIVVINGRFKSSKVILN”, the protease stability score came to 0.759.
The value for “REEEEHARRLVEMYFHALLTGDEDLLKSLLDPNVKLQIGDKVHVGREELIRSLRELWDKLGIDHITLEEYRIEIQGNKIRLKLYMHLHVNGRLLQVTTDILVDKVDGRWVIQEIRVHEA” was 1.91; that for “REEEEHLERVMSLILLIMSTGDFKTLSELFDPHARLRVGDKHLIGWSFVADWIVKFKNMQLRHHRRHVVNGVVEVEDEFRVGDKRFTLRLLFLVVDGVVKEVHIEIEDR” was 0.833.
Then “REEEEHLKKFIEDHIRDLRTGDEQKVADQADPHVRTRFNGVDYHGREDHMKLMKHIRFEEMRIEDVKVQGDKAHIDSIITIEVDGQRETIKVHIIIVKIDGRWLLKQSHFN”, with 0.396.
On to “REEEEISKNIAELFEHTLRTGDEKLFLKLADPHVKNEQGEFDSVGREEWHRQFREILNKWGVDRIHSQERRFTDYDGRLEMHVEMRFNGKRVEVRMRVEKYDGRWILTELHIRIE”, for which the protease stability score worked out at 0.655.
“REEEELLKKLADHWWENVRTGDERRMRELFDPNTQFVIEVGDKKFTRHGRDELVHSLEHARIHDFHIKDQRPQGDFIEVEGEIDGEIDGRRFRTDVRVWIVIVNGRLKQIHIHVG” registered a protease stability score of 1.15.
The value for “REEEELMKEIARRVIESHYTGDEDWWLELADPNVQVHVGDKRKVGREHALHLLHIFHKHLGVDHLHLRHVHVQGDWIEIEMDLNINGKIREMRVFVTVIDGRLDSINIDIK” was 1.27; that for “REEEENMRHFYKLMEHSLHTGDEDTLRRLFDPDARILIDGREHHGMEFILQLLHHIRLRVHDTKIEDIEHQGEWLHMHTRIDIYYNVDGQEVRVDTNVRLHAHKVDGRWFVRSYERG” was 0.748.
Consider “REEEEQLKHFIEHRLHNFLTGNEERLHHLADPNMRIDINGKELHGREAYIYEFNRLGWEIKHIDIEHLEVQGDKVDVDLRFKGHIDGKTRHIKSKLIVLKVDGKWFDKDYFII”, for which the protease stability score was found to be 1.13.
In turn, “REEEERLKDLERVMRELWRTGDEREMSRNADPHVKLSVGDKEFHGRELFTKWASRVDHYDHLIIRDIETQGDKVRMYVETEMDIDGKDVKTESFILAVKIDGRWILRSLELR” returned a protease stability score of 0.387.
“REEEERVEHLARLVFRALMTGDEDEYKHLADPDDRLILVINGRRQEFHGMEVVLEWLRHLLKEIRIHHSHIHDVKVIGDKVDFDTSVDVEYNGQRHWRKMRVIIIIVNGRYRSVEIILE”: the protease stability score turned out to be 2.26.
The value for “REEEETLDRAIREMLRNMRTGDEHRMRELMDPNVRAHINGREIHGREEVVRHLVEWLKRVDHIEFKLEHQVVYGEKIDLDTRVTIRVNGVELRHKTHQRVHKIDGKWVLDELEIS” was 2.05.
Regarding “REEEEVVREIARRVIKSWITGNEHDMQEFADPHVRIFIGDKEIIGMEILNEILHRIKNITIRINMRHVDVQGDKVDLEGELEIRVNGQTERHDSRHHFDVVNGRIKIIEIQWD”, the protease stability score amounted to 0.918.
“REEEEYRHHVLRRWLEIWETGDEEAEAKNVDPNARMHVNGVDLHGRETIIHFLEEYMRKVKGVQERNDKVHLQGEFTHLTGRVLINGRWKEVTIQLLIINGRHHYLRIIIE” registered a protease stability score of 0.898.
For “REEEHAMKSMIDLWIESMNTGDERSISEMADPNAKNRVGDKTFVGMELLSHILFKLVKELGVRIEDHKIHDIKVQGDKIVSHVRLHLKYGDKEEDHETIIYTRKINGRWLIERVEVI”, the protease stability score was determined as 1.53.
The sequence “REEEHHLEKLARHIVHAILTGDERYLEKLMDPNTRVEIIDGEYRIERHGMHNIVHLLLEIRIHHFEIKRITTYNGQVDIDGEIDGEYGDKRDNRHVEIRFHFVNGRTKSFKVTWR” came in with a protease stability score of 1.31.
For “REEEKDEERMVHELMEWHRTGDEKTLNELLDPNARFIINGKHIHGREVFNEEVKRLGFRIEEYHLRRVRIYDGRIEFETEIDGEVNGRRLHIETRFHAIKINGQWRLKHIEFH”, the protease stability score was 2.5.
“REEEKDIRDVLKLWKDISRTGDEHLIRRLVDPNARLNFNGREIHGREDVAEFLLRRWRQIDHLEIIDRDVRYQGDKVEFHGHVREKIGDKEETYELEFILVKIDGRWLVHSLHVH”: the protease stability score came to 2.43.
“REEEKFAIHLVRRVVEYLLTGDEDSLKRLADPNTRIHINGVDRHGMEESYKWWKSEIDHLRHHIVITRMRFIDGVIEVDIRLHSDFDGVRFSWNVHLILLVVDGRIKTDKMIVE” came in with a protease stability score of 1.26.
In turn, “REEEKIYHHLTEMWYEMLHTGNEEERERLFDPNTRVNIGDYHFHGREKLLEAYRRWRHMLGIKHYEVDRVEVIGDKVFSQGHSKAENHRLDVRIVIVVWNGRLKETSVDIH” gave a protease stability score of 1.04.
